IntAct's records for PubMed 17174311

B1: Serine/threonine-protein kinase PLK4 (Mus musculus), Q64702 (parent)
chain: MAACIGERIEDFKVGNLLGKGSFAGVYRAESIHTGLEVAIKMIDKKAMYKAGMVQRVQNEVKIHCQLKHPSVLELYNYFEDNNYVYLVLEMCHNGEMNRYLKNRMKPFSEREARHFMHQIITGMLYLHSHGILHRDLTLSNILLTRNMNIKIADFGLATQLNMPHEKHYTLCGTPNYISPEIATRSAHGLESDIWSLGCMFYTLLIGRPPFDTDTVKNTLNKVVLADYEMPAFLSREAQDLIHQLLRRNPADRLSLSSVLDHPFMSRNPSPKSKDVGTVEDSMDSGHATLSTTITASSGTSLSGSLLDRRLLVGQPLPNKITVFQKNKNSSDFSSGDGSNFCTQWGNPEQEANSRGRGRVIEDAEERPHSRYLRRAHSSDRASPSNQSRAKTYSVERCHSVEMLSKPRRSLDENQHSSNHHCLGKTPFPFADQTPQMEMVQQWFGNLQMNAHLGETNEHHTVSPNRDFQDYPDLQDTLRNAWTDTRASKNADTSANVHAVKQLSAMKYMSAHHHKPEVMPQEPGLHPHSEQSKNRSMESTLGYQKPTLRSITSPLIAHRLKPIRQKTKKAVVSILDSEEVCVELLRECASEGYVKEVLQISSDGTMITVYYPNDGRGFPLADRPPLPTDNISRYSFDNLPEKYWRKYQYASRFIQLVRSKTPKITYFTRYAKCILMENSPGADFEVWFYDGAKIHKTENLIHIIEKTGISYNLKNENEVTSLKEEVKVYMDHANEGHRICLSLESVISEEEKRSRGSSFFPIIVGRKPGNTSSPKALSAPPVDPSCCKGEQASASRLSVNSAAFPTQSPGLSPSTVTVEGLGHTATATGTGVSSSLPKSAQLLKSVFVKNVGWATQLTSGAVWVQFNDGSQLVVQAGVSSISYTSPDGQTTRYGENEKLPEYIKQKLQCLSSILLMFSNPTPNFQ

Variants of: B1
Conditions: with MBP

Row | Variant | effect of a mutation on the interaction
1 | D154N | disrupting interaction

Variants of: B1
Conditions: with ccnb3_human CCNB3, Q8WWL7
ccnb3_human CCNB3, Q8WWL7, sequence (Q8WWL7 whole entry): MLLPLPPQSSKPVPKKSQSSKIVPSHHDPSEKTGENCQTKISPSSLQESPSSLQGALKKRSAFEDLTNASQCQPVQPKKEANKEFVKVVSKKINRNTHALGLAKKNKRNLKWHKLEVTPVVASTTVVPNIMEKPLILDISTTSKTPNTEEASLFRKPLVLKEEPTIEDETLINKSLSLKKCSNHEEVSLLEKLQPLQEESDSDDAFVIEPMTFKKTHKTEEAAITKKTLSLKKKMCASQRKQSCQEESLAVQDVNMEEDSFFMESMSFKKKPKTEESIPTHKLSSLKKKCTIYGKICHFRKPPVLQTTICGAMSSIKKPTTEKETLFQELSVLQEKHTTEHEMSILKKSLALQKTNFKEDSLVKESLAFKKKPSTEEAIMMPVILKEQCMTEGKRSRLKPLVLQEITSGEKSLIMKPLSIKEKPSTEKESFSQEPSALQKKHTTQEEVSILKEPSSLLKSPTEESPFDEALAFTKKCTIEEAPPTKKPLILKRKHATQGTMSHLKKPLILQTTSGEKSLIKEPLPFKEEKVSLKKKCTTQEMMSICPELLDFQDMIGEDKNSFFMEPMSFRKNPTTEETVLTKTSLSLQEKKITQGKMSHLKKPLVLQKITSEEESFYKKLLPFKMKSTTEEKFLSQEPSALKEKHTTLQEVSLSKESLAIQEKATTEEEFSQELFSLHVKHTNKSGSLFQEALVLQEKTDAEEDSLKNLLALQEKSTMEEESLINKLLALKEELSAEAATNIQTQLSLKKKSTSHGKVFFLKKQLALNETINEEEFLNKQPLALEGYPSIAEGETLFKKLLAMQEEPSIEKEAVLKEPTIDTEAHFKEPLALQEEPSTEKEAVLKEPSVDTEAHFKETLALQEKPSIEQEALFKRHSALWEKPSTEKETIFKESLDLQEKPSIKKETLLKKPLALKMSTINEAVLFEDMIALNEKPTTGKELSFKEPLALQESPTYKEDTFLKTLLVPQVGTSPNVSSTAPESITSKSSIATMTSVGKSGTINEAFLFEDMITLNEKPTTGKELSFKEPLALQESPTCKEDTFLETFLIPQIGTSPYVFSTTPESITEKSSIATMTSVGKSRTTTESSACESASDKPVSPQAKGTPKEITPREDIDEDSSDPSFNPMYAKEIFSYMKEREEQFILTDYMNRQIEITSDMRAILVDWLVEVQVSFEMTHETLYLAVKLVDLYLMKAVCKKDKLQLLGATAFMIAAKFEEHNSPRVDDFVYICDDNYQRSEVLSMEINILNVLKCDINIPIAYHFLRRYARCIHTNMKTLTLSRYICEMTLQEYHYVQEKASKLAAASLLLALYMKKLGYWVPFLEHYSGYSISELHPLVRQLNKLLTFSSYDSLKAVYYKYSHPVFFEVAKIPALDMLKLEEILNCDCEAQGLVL

Row | Variant | effect of a mutation on the interaction
2 | D154N | disrupting interaction
